Test results taken from patent publication US20240199730A1 (AstraZeneca / MedImmune, published 2024).

T1: N-terminally tagged biotinylated cyno TSLP (cynomolgus, UniProt A0A7N9CAT7 29-159, biotinylated (site not stated))
T1 construct: Captured on a streptavidin C1 chip in the Biacore assay; also called recombinant mammalian cell-expressed cyno TSLP; not shown: N-terminal tag
T1 sequence: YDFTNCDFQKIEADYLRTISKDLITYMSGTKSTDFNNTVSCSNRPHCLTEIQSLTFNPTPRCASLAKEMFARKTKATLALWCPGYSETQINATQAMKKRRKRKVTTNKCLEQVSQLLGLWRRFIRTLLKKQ

B1: Fab 1 (Fab, V domains shown)
VH: QMQLVESGGGVVQPGRSLRLSCAASGFTFRTYGMHWVRQAPGKGLEWVAVIWYDGSNKHYADSVKGRFTITRDNSKNTLNLQMNSLRAEDTAVYYCARAPQWELVHEAFDIWGQGTMVTVSS
VL: SYVLTQPPSVSVAPGQTARITCGGNNLGSKSVHWYQQKPGQAPVLVVYDDSDRPSWIPERFSGSNSGNTATLTISRGEAGDEADYYCQVWDSSSDHVVFGGGTKLTVLG
notes: The claims call it an IgG1 Fab; It was injected as monomerized Fab1 in the Biacore assay; also called anti-TSLP Fab
B2: cyno TSLP (ligand, cynomolgus)
chain: T1 sequence
notes: Cyno TSLP as used in solution in the KinExA assay; also called Cynomolgus TSLP

What was measured:
cyno TSLP = target: B2; experiment: KinExA, solution phase; global 1:1 fit to two datasets
Description: (§1) The KinExA methodology has been reviewed (Darling and Brault, 2004).
(§2) The KinExA software was used to calculate the equilibrium dissociation constant (KD).

[1] = target: T1, N-terminally tagged biotinylated cyno …; experiment: SPR, Biacore 8K; biotinylated TSLP on streptavidin C1 chip, Fab1 injected; 1:1 Langmuir model
Description: Streptavidin surfaces were prepared using lyophilized streptavidin that was reconstituted with D-PBS. Briefly, streptavidin was diluted to 4 μg mL-1 in 10 mM sodium acetate pH 4.5 and covalently immobilized to three flow cell surfaces of a S Series C1 biosensor chip by standard amine coupling methods. A final streptavidin surface of 170 response units (RUs) was achieved. The amine coupling reagents were also used to prepare a control blank surface, with no immobilized streptavidin, to serve as a reference surface within each flow cell. […] The low level of analyte binding ensured that mass-transport induced artefacts were minimized, especially when combined with the relatively fast, 50 μL min-1 assay flow-rates used during the kinetics measurement steps. […] Multiple buffer-only injections were made under the same conditions throughout the experiment to allow for double reference processing of the final sensorgram sets.
The chip surface was fully regenerated by flowing two 30 second pulses of 10 mM glycine pH 1.7. Binding affinity and kinetics were determined using 1:1 Langmuir model.

Fab 1 [2] = target: B1; experiment: KinExA, cyno TSLP titrated into 40 pM fixed Fab 1 (open squares); free Fab 1 captured on hu TSLP-coated beads; the midpoint depends on the fixed Fab concentration
Description: as §1, §2

Fab 1 [3] = target: B1; experiment: KinExA, cyno TSLP titrated into 1000 pM fixed Fab 1 (filled diamonds); free Fab 1 captured on hu TSLP-coated beads; the midpoint depends on the fixed Fab concentration
Description: as §1, §2

Row | Kd (cyno TSLP) [nM] | Kd [1] [nM] | IC50 (read off the curve) (Fab 1 [2]) [pM] | IC50 (read off the curve) (Fab 1 [3]) [pM] | Binder
1 | 0.0136 | 0.0884 | – | – | B1
2 | – | – | ~40 | ~600 | B2
